Test results reported in patent US12709742B2, “RNA expression modulating or editing method via regulation of Cas13 protein” (Korea Advanced Institute of Science and Technology, priority 2021, dated 2026).

Tested on: Firefly luciferase target RNA
Test: Dual luciferase reporter assay of paCas13 fragments under blue light stimulation
Assay type: cell-based
Conditions: 488 nm blue light for 24 hours
Description: Specifically, to evaluate the changes in protein levels, HEK293T cells (ATCC) were co-transfected with 10 ng of a double luciferase reporter plasmid (Promega), 75 ng of each inducible Cas13 fragment expressing the plasmid, and 100 ng of a crRNA expression plasmid. 16 hours prior to transfection, the cells were placed in a 96-well plate (Corning) and allowed to grow until reaching 80% confluency. On the next day, 10 μL of Opti-MEM and 10 μL of Opti-MEM containing 0.6 μL of lipofectamine LTX and 0.26 μL of PLUS reagent and all transfected DNA plasmids were mixed, and a total of 20 μL of Opti-MEM I reducing serum medium (ThermoFisher) was added to each well. All solutions were incubated for 5 minutes before slowly added to the cells. […] The experiment was performed in triplicate. The decrease in the target RNA, the Firefly transcript, was confirmed by comparing the expression value at the protein level of the control group Renilla.
Luciferase reporter assay was performed to confirm whether the Cas13b protein was activated by light stimulation when the construct designed in Example 3 was used.
To test the light-inducible RNA targeting of paCas13, the target RNA knockdown activity of paCas13 fragments was evaluated using a dual luciferase system under the blue light stimulation for 24 hours with an LED plate emitting 488 nm of blue light (FIG. 8). […]

B1: nMagH: paCas13 fragments fused with pMag and nMagH (nMag with M135I and M165I mutations) (protein)
chain: HTLYAPGGYDIMGYLDQIGNRPNPQVELGPVDTSCALILCDLKQKDTPIVYASEAFLYMTGYSNAEVLGRNCRFLQSPDGMVKPKSTRKYVDSNTINTIRKAIDRNAEVQVEVVNFKKNGQRFVNFLTIIPVRDETGEYRYSMGFQCETE
modifications: nMagHigh1 amino acid sequence
Target mRNA cleavage with pMag in combination with dimerization partner: Efficient target mRNA cleavage was seen
